# Measurements as given in article PMC11607471, “E3 Ubiquitin Ligase Ring Finger Protein 2 Alleviates Cerebral Ischemia–Reperfusion Injury by Stabilizing Mesencephalic Astrocyte‐Derived Neurotrophic Factor Through Monoubiquitination” (CNS Neuroscience & Therapeutics, 2024).
# T1: GST-RNF2 (human, UniProt Q99496 1-336)
# T1 construct: RNF2; also called recombinant GST-tagged human RNF2; source: Escherichia coli BL-21, immobilized on glutathione-Sepharose beads
# T1 sequence (looked up): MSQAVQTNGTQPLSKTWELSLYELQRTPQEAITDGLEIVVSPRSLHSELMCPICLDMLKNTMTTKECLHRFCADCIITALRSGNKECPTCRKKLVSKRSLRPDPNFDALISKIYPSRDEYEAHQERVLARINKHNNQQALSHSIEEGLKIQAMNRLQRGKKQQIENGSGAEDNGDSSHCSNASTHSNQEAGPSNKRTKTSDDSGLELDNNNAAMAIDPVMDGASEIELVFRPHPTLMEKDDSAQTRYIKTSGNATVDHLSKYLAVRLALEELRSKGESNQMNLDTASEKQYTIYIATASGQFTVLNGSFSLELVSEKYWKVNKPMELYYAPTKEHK
# B1: His-tagged human MANF (natural protein, UniProt P55145 25-182, looked up)
# chain: LRPGDCEVCISYLGRFYQDLKDRDVTFSPATIENELIKFCREARGKENRLCYYIGATDDAATKIINEVSKPLAHHIPVEKICEKLKKKDSQICELKYDKQIDLSTVDLKKLRVKELKKILDDWGETCKGCAEKSDYIRKINELMPKYAPKAASARTDL
# notes: human MANF; also called His-MANF; recombinant His-MANF; source: Escherichia coli BL-21, purified (Ni-NTA agarose)
# Biological target: T1, GST-RNF2
# Experiment: pull-down; GST-RNF2 immobilized on glutathione-Sepharose beads incubated with recombinant His-MANF; blot with anti-MANF
# Conditions: both partners purified
binder,measurement,value
B1,binding result,binds
